Source: patent publication US20170226155A1
pIC50: −log10 of the molar value.

What was measured:
- [1] = assay: enzyme inhibition (A410); pH 2
- [2] = assay: enzyme inhibition (A410); pH 8
- [3] = assay: enzyme inhibition (A410); pH 12
- [4] = assay: enzyme inhibition (fluorescence); pH 7.6, +DPIV
- [5] = assay: enzyme inhibition (fluorescence); pH 7.6, -DPIV
- [6] = assay: enzyme inhibition (fluorescence); pH 2, -DPIV
- [7] = assay: enzyme inhibition (fluorescence); pH 2, +DPIV
[8] = target: Dipeptidyl amino peptidase type IV (DPP IV); assay: cell-based or functional assay
DP IV [9] = assay: enzyme inhibition (A410); pH 2, 10 minutes
DP IV [10] = assay: enzyme inhibition (A410); pH 2, 30 minutes
DP IV [11] = assay: enzyme inhibition (A410); pH 8, 30 minutes
DPP IV [12] = assay: enzyme inhibition (A410); pH 2, 10 minutes
DPP IV [13] = assay: enzyme inhibition (A410); pH 2, 30 minutes
DPP IV [14] = assay: enzyme inhibition (A410); pH 8, 30 minutes
DPP IV [15] = assay: enzyme inhibition (A410); pH 8, 10 minutes

| Substance | IC50 at ten minutes, pH 2 [8] | IC50 at ten minutes, pH 8 [8] | further results |
| --- | --- | --- | --- |
| tert-Butyl Gly-boro-Pro | – | – | pIC50 (- [1]): 8.47; pIC50 (- [2]): 6.52; pIC50 (- [3]): 7.72 |
| Propyl Gly-boro-Pro | – | – | pIC50 (- [1]): 8.60; pIC50 (- [2]): 5.55; pIC50 (- [3]): 6.70 |
| AspProGlyboroLeu | – | – | pIC50 (- [4]): 7.03; pIC50 (- [5]): 6.63; pIC50 (- [6]): 6.63; pIC50 (- [7]): 6.97 |
| ChgHypEtgboroPro (peptide) | 17 nM | 25 nM | – |
| ChgAib-EthylGly-boroPro | – | – | pIC50 (DP IV [9]): 4.89; pIC50 (DP IV [10]): 5.68; pIC50 (DP IV [11]): 5.49 |
| ChgProChgboroPro (peptide) | 14 nM | 14 nM | – |
| ChgAzeEtgboroPro (peptide) | 15 nM | 16 nM | – |
| ChgPipEtgboroPro (peptide) | 19 nM | 14 nM | – |
| AibAlaValboroPro (peptide) | 2 µM | – | – |
| Cyclohexylglycine-Proline-Ala-boroProline (peptide) | 17 nM | 17 nM | IC50, pH 2 (Tetrapeptide Prodrugs) [8]: 19 nM; IC50, pH 8 (Tetrapeptide Prodrugs) [8]: 15 nM |
| tBugProAlaboroPro (peptide) | 14 nM | 18 nM | – |
| Cyclohexylglycine-Proline-Valine-boroProline (peptide) | 70 nM | 70 nM | IC50, pH 2 (Tetrapeptide Prodrugs) [8]: 65 nM; IC50, pH 8 (Tetrapeptide Prodrugs) [8]: 72 nM |
| ChgAla-tBugboroPro | – | – | pIC50 (DPP IV [12]): < 4.66; pIC50 (DPP IV [13]): < 4.66; pIC50 (DPP IV [14]): < 4.66; pIC50 (DPP IV [15]): < 4.66 |
| ChgThz4EtgboroPro (peptide) | 13 nM | 16 nM | – |
| ChgAlaValboroPro (peptide) | 190 nM | 360 nM | IC50, pH 2 (Tetrapeptide Prodrugs) [8]: 190 nM; IC50, pH 8 (Tetrapeptide Prodrugs) [8]: 360 nM |
| ChgProtBugboroAla (peptide) | 6.8 µM | 8.4 µM | – |

More lines, main results first:

| IC50 at ten minutes, pH 2 [8] | IC50 at ten minutes, pH 8 [8] | Substance | further results |
| --- | --- | --- | --- |
| 2 µM | 30 µM | ChgAlaProboroPro (peptide) | IC50, pH 2 (Tetrapeptide Prodrugs) [8]: 2 mM; IC50, pH 8 (Tetrapeptide Prodrugs) [8]: 30 mM |
| 12 nM | 14 nM | ChgProEtgboroPro (peptide) | – |
| 39 nM | 34 nM | N-Me-Gly-3,4 dehydroproline-ALA-PRO boronic acid (peptide) | – |
| 15 nM | 17 nM | ChgDhpEtgboroPro (peptide) | – |
| 600 nM | 802 nM | ChgAlaEtgboroPro (peptide) | – |
| 1.5 µM | 8 µM | ChgProtBugboroPro (peptide) | – |
| 1.3 µM | 2.5 µM | ChgAlaEtgboroAla (peptide) | – |
| 180 nM | 170 nM | ChgProChgboroAla (peptide) | IC50, pH 2 (Tetrapeptide Prodrugs) [8]: 180 nM; IC50, pH 8 (Tetrapeptide Prodrugs) [8]: 170 nM |
